Test results from US20260085106A1 (AUTOLUS, published 2026).

molecular target: T1, caffeine dAb; experiment: peptide phage display panning on the anti-caffeine sdAb, method of Example 6
T1 construct: Llama-derived
T1 sequence (VHH, as listed by the source): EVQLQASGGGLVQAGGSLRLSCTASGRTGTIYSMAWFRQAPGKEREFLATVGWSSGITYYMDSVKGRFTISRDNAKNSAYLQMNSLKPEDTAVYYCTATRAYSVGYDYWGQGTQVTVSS

Binding result, binds:
ACTYLNSAKC [SEQ ID NO 16], HDSPTAA (also called HDSPTAA) [SEQ ID NO 14], HTLNKPP (also called HTLNKPP) [SEQ ID NO 12], YPDVPLA (also called YPDVPLA) [SEQ ID NO 15], DLSIGNH (also called DLSIGNH) [SEQ ID NO 13]
